Experimental data published in article PMC4671958, “Structure of the Helicase Domain of DNA Polymerase Theta Reveals a Possible Role in the Microhomology-Mediated End-Joining Pathway”.

Molecular target: Polθ-HLD (DNA polymerase theta helicase domain) (Homo sapiens, UniProt O75417 67-894)
Assay: fluorescence polarization; low salt, 50 mM NaCl; stated as single digit nM; 10 mM HEPES pH 7.5, 150 mM NaCl (low salt: 50 mM NaCl), 10 nM probe; temperature not stated in material
Details: protein: recombinant; tags: His6 tag cleaved with TEV; chain copies: 4; label: 5' fluorescein (FITC); single strand

Chain of Polθ-HLD (DNA polymerase theta helicase domain) (O75417 67-894): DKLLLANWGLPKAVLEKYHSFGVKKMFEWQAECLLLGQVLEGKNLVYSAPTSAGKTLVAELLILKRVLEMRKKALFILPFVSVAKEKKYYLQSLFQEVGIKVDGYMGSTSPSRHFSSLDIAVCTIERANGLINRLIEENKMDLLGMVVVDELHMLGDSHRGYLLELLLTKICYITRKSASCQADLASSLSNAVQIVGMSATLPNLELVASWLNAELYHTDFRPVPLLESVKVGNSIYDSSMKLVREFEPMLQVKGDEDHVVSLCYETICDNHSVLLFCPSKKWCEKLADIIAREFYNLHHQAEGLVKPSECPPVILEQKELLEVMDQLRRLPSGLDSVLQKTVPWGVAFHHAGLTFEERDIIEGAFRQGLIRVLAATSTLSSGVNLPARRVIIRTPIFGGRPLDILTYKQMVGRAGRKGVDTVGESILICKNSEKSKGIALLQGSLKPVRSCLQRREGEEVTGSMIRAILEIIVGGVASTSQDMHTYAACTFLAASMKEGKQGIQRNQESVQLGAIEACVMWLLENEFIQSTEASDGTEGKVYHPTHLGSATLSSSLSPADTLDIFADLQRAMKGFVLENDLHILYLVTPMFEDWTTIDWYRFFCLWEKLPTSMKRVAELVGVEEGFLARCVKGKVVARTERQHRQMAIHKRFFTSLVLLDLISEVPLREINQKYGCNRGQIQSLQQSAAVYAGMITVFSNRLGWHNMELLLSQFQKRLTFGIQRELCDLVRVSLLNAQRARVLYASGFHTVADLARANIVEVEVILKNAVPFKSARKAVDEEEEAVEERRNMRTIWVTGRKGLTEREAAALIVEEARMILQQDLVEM

B1: Single stranded (POLQ-1) (ssDNA)
DNA: ATCGATAGTCGGATCCTCTAGACAGCTCCATGTAGCAAGGCACTGGTAGAATTCGGCAGCGTC
Kd: < 10 nM
